To fix the notation:
T1: Dsk2-UBL D64K (Saccharomyces cerevisiae, UniProt P48510 1-75, D64K)
T1 sequence: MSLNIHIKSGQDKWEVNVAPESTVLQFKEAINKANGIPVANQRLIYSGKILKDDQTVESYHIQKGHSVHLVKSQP

T2: Dsk2 (full length) (Saccharomyces cerevisiae, UniProt P48510 1-373)
T2 sequence (looked up): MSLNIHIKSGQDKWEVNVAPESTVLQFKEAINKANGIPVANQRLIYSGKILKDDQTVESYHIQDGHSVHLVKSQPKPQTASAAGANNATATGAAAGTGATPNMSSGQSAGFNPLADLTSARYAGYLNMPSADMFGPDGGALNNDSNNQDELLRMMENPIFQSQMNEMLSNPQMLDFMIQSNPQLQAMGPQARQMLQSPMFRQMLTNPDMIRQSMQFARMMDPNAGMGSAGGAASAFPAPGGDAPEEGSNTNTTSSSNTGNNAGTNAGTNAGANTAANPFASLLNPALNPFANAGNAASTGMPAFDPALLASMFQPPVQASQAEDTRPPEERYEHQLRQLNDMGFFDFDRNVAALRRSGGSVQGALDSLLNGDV

B1: Dsk2-UBL (domain or fragment, Saccharomyces cerevisiae)
chain: T1 sequence with K64D
B2: Rpn10 C-terminal construct Rpn10_(204-268) (domain or fragment, Saccharomyces cerevisiae, UniProt P38886 204-268, looked up)
chain: GSGGDSDANGTFMDFGVDPSMDPELAMALRLSMEEEQQRQERLRQQQQQQDQPEQSEYPEQHQDK

Assay [1] has as its target B2. Briefly: NMR titration.
In assay [2] the target is T1, Dsk2-UBL D64K. In words: NMR titration.
The target in assay [3] is B1. In words: NMR titration.
Assay [4] has as its target T1, Dsk2-UBL D64K. Briefly: SPR.
Assay [5] addresses T2, Dsk2 (full length). In words: SPR.
The target in assay [6] is B1. In words: SPR.

Positions count from the first letter of the chain named.

Consider B1, for which the “stoichiometry N” value in assay [1] turned out to be 1.

In the case of B2, the Kd in assay [2] was determined as 39 ± 17 µM; in assay [3] it was 3.5 ± 0.7 µM; in assay [4], 31.8 µM; in assay [5], 12.5 µM; in assay [6], 9 µM.

These data come from paper PMC2807407 (Molecular cell, 2009).
